Measured values taken from patent US20260139278A1, “SPECIFICITY OF CRISPR-TRANSPOSON SYSTEMS IN DNA MODIFICATION” (The Trustees of Columbia University in the City of New York, published 2026).
Blank lines part the entries; values can stand above or below the binder they belong to.

Experiments:
[1] = molecular target: T1, TnsC (Scytonema hofmannii UTEX B 2349, Type V-K CAST, recombinantly purified, after TEV cleavage)
T1 chain: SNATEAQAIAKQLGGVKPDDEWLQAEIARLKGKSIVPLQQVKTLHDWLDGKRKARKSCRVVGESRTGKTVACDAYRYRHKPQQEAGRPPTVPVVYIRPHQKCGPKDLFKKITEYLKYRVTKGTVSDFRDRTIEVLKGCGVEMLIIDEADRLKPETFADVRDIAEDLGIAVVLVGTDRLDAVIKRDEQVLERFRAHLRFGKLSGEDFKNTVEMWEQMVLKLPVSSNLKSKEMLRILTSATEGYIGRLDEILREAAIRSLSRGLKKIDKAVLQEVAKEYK

[2] = molecular target: T2, TnsC (ShCAST) (Scytonema hofmannii UTEX B 2349); assay: FP; ATP-dependent at 200 mM NaCl; nucleotide-independent at 50 mM NaCl; 2 mM MgCl2, 37C; conditions: tags: His6-SUMO-TEV cleaved (SNA N-terminal scar)
T2 chain: T1 chain
Procedure: (§1) Fluorescence polarization. Fluorescence polarization was performed as reported earlier (Hoffmann, F. T. et al. Nature 609, 384-393 (2022). A 55 bp dsDNA labeled with a 5′ Fluorescein (6-FAM) tag on one of its strands was used for all fluorescence polarization experiments (Table 3). Recombinantly expressed TnsC (0-15 μM) was titrated with the FAM-labeled dsDNA in 1× binding buffer (20 mM HEPES pH 7.5, 2 mM MgCl₂, 200 mM NaCl, 10 μM ZnCl₂, 1 mM DTT) in the presence of 2 mM ATP or its analogs. The samples were incubated at 37° C. for 30 min in a 384-well plate. The fluorescence gain was adjusted to a sample lacking TnsC while keeping a requested polarization value of 60 mP. The error bar represents the standard deviation measured across two technical replicates. For low salt measurements, the concentration of NaCl was maintained at 50 mM.

[3] = molecular target: T3, TniQ + TnsC (ShCAST) (Scytonema hofmannii UTEX B 2349); assay: FP; TniQ titrated onto DNA preincubated with TnsC, 50 mM NaCl, 37C; conditions: tags: His6-SUMO-TEV cleaved
T3 chain 1: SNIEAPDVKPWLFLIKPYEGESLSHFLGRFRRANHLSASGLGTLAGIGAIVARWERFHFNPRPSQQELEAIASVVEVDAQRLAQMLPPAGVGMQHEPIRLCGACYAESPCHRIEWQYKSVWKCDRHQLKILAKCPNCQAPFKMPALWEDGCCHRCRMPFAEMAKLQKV
T3 chain 2: T1 chain
Procedure: as §1
(§2) For fluorescence polarization measurements for TniQ alone or its interaction with DNA bound to TnsC, TniQ (0-1 μM) was titrated and incubated for 30 min at 37° C. with fluorescently labeled DNA alone or DNA preincubated with […] (30 min at 37° C.). Experiments were conducted in a 1× binding buffer containing 50 mM NaCl in a 25 μL final volume.

[4] = molecular target: T4, TnsC (Scytonema hofmannii UTEX B 2349, Type V-K CAST, recombinantly purified, after TEV cleavage) (Scytonema hofmannii (UTEX B 2349)); assay: fluorescence polarization, TniQ (0-1 µM) titrated onto 55-bp FAM-labeled dsDNA preincubated with TnsC
T4 construct: also called AAA+ ATPase; AAA+ regulator
T4 chain: T1 chain
Procedure: as §1, §2

B1: TnsB (Scytonema hofmannii UTEX B 2349, Type V-K CAST, recombinantly purified, after TEV cleavage) (protein)
chain: SNNSQQNPDLAVHPLAIPMEGLLGESATTLEKNVIATQLSEEAQVKLEVIQSLLEPCDRTTYGQKLREAAEKLNVSLRTVQRLVKNWEQDGLVGLTQTSRADKGKHRIGEFWENFITKTYKEGNKGSKRMTPKQVALRVEAKARELKDSKPPNYKTVLRVLAPILEKQQKAKSIRSPGWRGTTLSVKTREGKDLSVDYSNHVWQCDHTRVDVLLVDQHGEILSRPWLTTVIDTYSRCIMGINLGFDAPSSGVVALALRHAILPKRYGSEYKLHCEWGTYGKPEHFYTDGGKDFRSNHLSQIGAQLGFVCHLRDRPSEGGVVERPFKTLNDQLFSTLPGYTGSNVQERPEDAEKDARLTLRELEQLLVRYIVDRYNQSIDARMGDQTRFERWEAGLPTVPVPIPERDLDICLMKQSRRTVQRGGCLQFQNLMYRGEYLAGYAGETVNLRFDPRDITTILVYRQENNQEVFLTRAHAQGLETEQLALDEAEAASRRLRTAGKTISNQSLLQEVVDRDALVATKKSRKERQKLEQTVLRSAAVDESNRESLPSQIVEPDEVESTETVHSQYEDIEVWDYEQLREEYGF
- ATP hydrolysis activity of TnsC (Malachite Green assay) [1]: TnsB stimulates the ATP hydrolysis activity of TnsC in a DNA-dependent reaction
- phosphate liberated (Malachite Green Phosphate Assay; TnsC 10 µM, TnsB 20 µM, dsDNA 10 µM, 1 mM ATP, 120 min at 37° C.) [1]: the sample containing TnsC, TnsB and dsDNA which liberated 174 µM of phosphate

B2: 55-bp FAM dsDNA (dsDNA)
DNA 1: GAGGAGGGCTGTTTTTACAAAATCCGGTAGTAACTTGCTAACCAATTCCTAGGCA
DNA 2: TGCCTAGGAATTGGTTAGCAAGTTACTACCGGATTTTGTAAAAACAGCCCTCCTC
- binding result [2]: binds
- binding result [3]: binds

- binding result [4]: binds
B3: TniQ (Scytonema hofmannii UTEX B 2349, Type V-K CAST, recombinantly purified, after TEV cleavage) (other)
chain: T3 chain 1
notes: also called ShCAST TniQ; adaptor protein
